18 molecules from patent US8895526B2, “Identification of RNAI targets and use of RNAI for rational therapy of chemotherapy-resistant leukemia and other cancers” (Cold Spring Harbor Laboratory, priority 2009, dated 2014) can be followed below.

To fix the notation:
B1: Suz12.1676: shRNA, SEQ ID NO: 75 (nucleic acid)
guide: TGCTGTTGACAGTGAGCGATAGGATAGATGTTTCAATCAATAGTGAAGCCACAGATGTATTGATTGAAACATCTATCCTAGTGCCTACTGCCTCGGA
B2: Smarcd1.1858: shRNA, SEQ ID NO: 70 (nucleic acid)
guide: TGCTGTTGACAGTGAGCGCTAGGACCTCTAGATAGTGTTATAGTGAAGCCACAGATGTATAACACTATCTAGAGGTCCTATTGCCTACTGCCTCGGA
B3: Eed.1829: shRNA targeting Eed; probably Eed.1820, SEQ ID NO: 227 (nucleic acid)
guide: TGCTGTTGACAGTGAGCGCTAGAAGTAATGTATCTTGCTATAGTGAAGCCACAGATGTATAGCAAGATACATTACTTCTATTGCCTACTGCCTCGGA
B4: Renilla.713: neutral control shRNA, SEQ ID NO: 213 (nucleic acid)
chain: TGCTGTTGACAGTGAGCGCAGGAATTATAATGCTTATCTATAGTGAAGCCACAGATGTATAGATAAGCATTATAATTCCTATGCCTACTGCCTCGGA
B5: Ptgs2.2058: neutral control shRNA, SEQ ID NO: 210 (nucleic acid)
chain: TGCTGTTGACAGTGAGCGCCCGGTGTTTGTCCTTTAAATATAGTGAAGCCACAGATGTATATTTAAAGGACAAACACCGGATGCCTACTGCCTCGGA
B6: Mn1.5864: neutral control shRNA, SEQ ID NO: 208 (nucleic acid)
chain: TGCTGTTGACAGTGAGCGCATCGCTATTGCACATGTATAATAGTGAAGCCACAGATGTATTATACATGTGCAATAGCGATTTGCCTACTGCCTCGGA
B7: BRAF.3826: neutral control shRNA, SEQ ID NO: 192 (nucleic acid)
chain: TGCTGTTGACAGTGAGCGCCCCATTGTTTCTTCCAACTTATAGTGAAGCCACAGATGTATAAGTTGGAAGAAACAATGGGATGCCTACTGCCTCGGA
B8: Ptgs2.1082: neutral control shRNA, SEQ ID NO: 209 (nucleic acid)
chain: TGCTGTTGACAGTGAGCGCCAAGATAGTGATCGAAGACTATAGTGAAGCCACAGATGTATAGTCTTCGATCACTATCTTGATGCCTACTGCCTCGGA
B9: Ptgs2.284: neutral control shRNA, SEQ ID NO: 211 (nucleic acid)
chain: TGCTGTTGACAGTGAGCGAAAGAATCAAATTACTGCTGAATAGTGAAGCCACAGATGTATTCAGCAGTAATTTGATTCTTGTGCCTACTGCCTCGGA
B10: Kit.1241: neutral control shRNA, SEQ ID NO: 194 (nucleic acid)
chain: TGCTGTTGACAGTGAGCGATTCCGTGACATTCAACGTTTATAGTGAAGCCACAGATGTATAAACGTTGAATGTCACGGAAGTGCCTACTGCCTCGGA
B11: Ptgs2.3711: neutral control shRNA, SEQ ID NO: 212 (nucleic acid)
chain: TGCTGTTGACAGTGAGCGCAACGTTCATGGATAAATTCTATAGTGAAGCCACAGATGTATAGAATTTATCCATGAACGTTATGCCTACTGCCTCGGA
B12: Trp53.1224: neutral control shRNA, SEQ ID NO: 214 (nucleic acid)
chain: TGCTGTTGACAGTGAGCGCCCACTACAAGTACATGTGTAATAGTGAAGCCACAGATGTATTACACATGTACTTGTAGTGGATGCCTACTGCCTCGGA
B13: BRAF.5053: neutral control shRNA, SEQ ID NO: 193 (nucleic acid)
chain: TGCTGTTGACAGTGAGCGCTAGGGTGATGTCTCACTTGAATAGTGAAGCCACAGATGTATTCAAGTGAGACATCACCCTATTGCCTACTGCCTCGGA
B14: BRAF.3750: neutral control shRNA, SEQ ID NO: 191 (nucleic acid)
chain: TGCTGTTGACAGTGAGCGCTAGCATAATGACAATTATTTATAGTGAAGCCACAGATGTATAAATAATTGTCATTATGCTAATGCCTACTGCCTCGGA
B15: Orc2mil981: shRNA targeting ORC2, SEQ ID NO: 19 (nucleic acid)
chain: TGCTGTTGACAGTGAGCGAGAGGCTTGAAGCTTTCCTTTATAGTGAAGCCACAGATGTATAAAGGAAAGCTTCAAGCCTCCTGCCTACTGCCTCGGA
B16: mi550: shRNA targeting ORC1, SEQ ID NO: 17 (nucleic acid)
chain: TGCTGTTGACAGTGAGCGCGGAAATATTCTGGTATGATTATAGTGAAGCCACAGATGTATAATCATACCAGAATATTTCCTTGCCTACTGCCTCGGA
B17: Orc2mil903: shRNA targeting ORC2, SEQ ID NO: 18 (nucleic acid)
chain: TGCTGTTGACAGTGAGCGAGGAACTGATGGAGTAGAGTATTAGTGAAGCCACAGATGTAATACTCTACTCCATCAGTTCCCTGCCTACTGCCTCGGA
B18: shPCNA.538: shRNA, SEQ ID NO: 56 (nucleic acid)
chain: TGCTGTTGACAGTGAGCGCGGAGTACAGCTGTGTAATAAATAGTGAAGCCACAGATGTATTTATTACACAGCTGTACTCCTTGCCTACTGCCTCGGA

The subject of the first series is normal hematopoietic cells. Briefly: Dual-color competition assay of hematopoietic reconstitution in vivo. The conditions noted are these: 4 weeks after transplantation, LMN-GFP vs mCherry control. Here is the method: LMN vectors harboring shRNAs are transduced into fetal livers. Infected cells are subsequently transplanted into lethally irradiated recipients. This assay compares the relative contribution of the experimental shRNA (in an LMN vector harboring a GFP marker) to a control, neutral shRNA (in an LMN vector harboring a red fluorescent protein marker (mCherry)). The effect of the experimental shRNA on hematopoesis is assessed by the ratio of these two markers in subsets of peripheral blood cells, or bone marrow or spleen, measured at 4 weeks.
As an additional verification that therapy resistant AML leukemias harbor a unique sensitivity to inhibition of the identified epigenetic pathways, the influence of the epigenetics shRNAs on normal hematopoiesis was also examined in vivo following retroviral transduction of LMN (MSCV-miR30/shRNA-PGK-Neo-IRES-GFP; constructed by inserting a miR30-cassette and a PGK-NeomycinR-IRES-GFP cassette in the MSCV-backbone (Clontech)) into E13.5 fetal livers and subsequent transplantation of infected cells into lethally irradiated recipients (FIG. 27). This assay compares the relative contribution of the experimental shRNA vector (linked with GFP) to control, neutral shRNA LMN vector that harbors the red fluorescent protein (mCherry). At 4 weeks following transplantation of the mixed GFP+ and mCherry+ cells into recipient animals, the ratio of these two colors is measured in subsets of peripheral blood cells of various hematopoietic lineages or in bone marrow and spleens by co-staining with surface markers (e.g. Mac1, Gr1 for myeloid, B220 for B-lymphoid).
Take B1: the “impact on proliferation of normal hematopoietic cells in vivo” value is listed as “little, if any impact”.

Regarding B2, the “impact on proliferation of normal hematopoietic cells in vivo” value was “little, if any impact”. The same measure, in the same setting: with B3 the entry was “little, if any impact”.

A further series deals with tet-on competent MLL/AF9+Nras AML. Briefly: Pooled negative selection RNAi screening (deep sequencing). Format: cell-based, mouse. The conditions noted are these: deep sequencing reads, On Dox compared to T0. In a few lines: (§1)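 A pool of 1230 tet-regulated shRNAs (TRMPV-type) was retrovirally transduced at mostly single copy and ~1000-fold representation into tet-on MLL/AF9+Nras AML cells or immortalized murine embryonic fibroblasts, then cultured on or off doxycycline. shRNA-expressing cells were FACS-sorted, and shRNA representation was quantified by PCR and deep sequencing of genomic DNA, with depletion on dox compared against t0 and off dox.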
Regarding B4, the “Fold depletion in AML” value was 1.29 Fold. On to B5, for which the “Fold depletion in AML” value is 1.78 Fold. Still for that read-out and setting: the result for B6 reads 0.61 Fold; that for B7, 0.92 Fold. As to B8, the “Fold depletion in AML” value was determined as 0.51 Fold. On the same count and under the same terms, the result for B9 reads 0.34 Fold; that for B10, 1.88 Fold.

As to B11, the “Fold depletion in AML” value stood at 1.38 Fold. Consider B12, for which the “Fold depletion in AML” value was determined as 0.10 Fold. For B13, the “Fold depletion in AML” value worked out at 0.66 Fold. The same measure, in the same setting: the result for B14 reads 0.76 Fold.

The test system of another series is HCT116 cells. The series is described as follows: HCT116 proliferation assay: cell counts of shRNA-transduced cultures. Format: cell-based, human. The conditions noted are these: 5 days post-infection; normalized to EBNA1mi1666 and Lucifmi203 cultures. The procedure: HCT116 cultures in 24-well plates were infected separately with amphotropic retrovirus encoding 254 different shRNAs targeting 83 cell cycle and/or E2F regulated genes. On day 1 following infection each culture was suspended in media containing 1.5 μg/mL puromycin to select for cells transduced with the hairpins, then seeded to 6-well plates. On day 5 following infection, cells in each culture were suspended in media and counted using a hemacytometer. Results for each culture were normalized to the average of the number of cells counted in cultures transduced with hairpins targeting either of two different genes not endogenous to HCT116 cells (EBNA1 and Ff-luciferase).
About 24 hours prior to infection, 150,000 HCT116 cells were seeded per well of a 24-well plate in 0.4 mL DMEM+10% FBS. At the time of the first round of infection, culture media was aspirated from each HCT116 culture and 0.5 mL media containing virus, obtained from ˜36-hour post-transfection packaging cell culture as described above, was added to each HCT116 culture. Each HCT116 culture was infected with virus encoding a particular shRNA. […]
About 24 hours after the second round of infection of the HCT116 cultures, cells from each culture were suspended and seeded to 6-well plates in 2 mL DMEM+10% FBS+1.5 μg/mL puromycin per well. […] Following two more days of growth (day 5 post-infection), cells in each culture were suspended in complete DMEM and cell numbers per culture were counted using a hemacytometer. […]
In each experiment, HCT116 cells were also transduced with hairpins against EBNA1 (EBNA1mi1666) and Ff-luciferase (lucifmi203). […] Similar to cultures transduced with other shRNAs, on day 5 post-infection, HCT116 cells in cultures transduced with either EBNA1mi1666 or Lucifmi203 were suspended and counted using a hemacytometer. […]
The average cell number in HCT116 cultures transduced with EBNA1mi1666 and Lucifmi203 was calculated for each experiment and cell numbers in cultures transduced with the other shRNAs in the given experiment were normalized to this value. […]
In the case of B15, the “Cell # in culture/average cell number in negative control cultures” value (shortened to “Cell # in culture/average cell number”) was 0.8496. On to B16, for which the “Cell # in culture/average cell number” value is listed as 0.8719.

Consider B17, for which the “Cell # in culture/average cell number” value was 0.7115.

The subject of a further series is immortalized murine embryonic fibroblasts (Mef). Briefly: Pooled negative selection RNAi screening (deep sequencing). Format: cell-based. The conditions noted are these: deep sequencing reads, on dox compared to initial representation. In outline:
as §1
Consider B4, for which the “Fold depletion in Mef” value was 1.02 Fold. The same measure, in the same setting: the result for B5 reads 1.27 Fold. As for B6, the “Fold depletion in Mef” value is recorded as 1.09 Fold.

On to B7, for which the “Fold depletion in Mef” value is reported as 0.87 Fold. Still for that read-out and setting: with B8 the figure was 0.51 Fold; with B9, 1.21 Fold; with B10, 0.99 Fold. The same measure, in the same setting: the result for B11 reads 1.46 Fold; that for B12, 0.84 Fold; that for B13, 0.33 Fold. Same read-out and setting: with B14 the figure was 1.08 Fold.

Another series concerns Hepa1.6 cells. The series is described as follows: In vitro competition assay in Hepa1.6 cells. It is filed as cell-based, mouse. The conditions noted are these: five passages 1:8. The source says:
Two days after transduction with a GFP-tagged vector, the number of fluorescent cells was quantified. Cells were passaged 1:8 five times, and the number of GFPpositive transduced cells was quantified at each passage.
As to B18, the “competition with uninfected GFP-negative cells” value is “outcompeted by uninfected, GFP-negative cells”.
